# Patent US20240287172A1 (SCIRHOM, published 2024)
# Numbering of substitutions follows the chain as printed.
# T1: hiR2-FL-T555A-T7 (human, UniProt Q6PJF5 1-856)
# T1 sequence: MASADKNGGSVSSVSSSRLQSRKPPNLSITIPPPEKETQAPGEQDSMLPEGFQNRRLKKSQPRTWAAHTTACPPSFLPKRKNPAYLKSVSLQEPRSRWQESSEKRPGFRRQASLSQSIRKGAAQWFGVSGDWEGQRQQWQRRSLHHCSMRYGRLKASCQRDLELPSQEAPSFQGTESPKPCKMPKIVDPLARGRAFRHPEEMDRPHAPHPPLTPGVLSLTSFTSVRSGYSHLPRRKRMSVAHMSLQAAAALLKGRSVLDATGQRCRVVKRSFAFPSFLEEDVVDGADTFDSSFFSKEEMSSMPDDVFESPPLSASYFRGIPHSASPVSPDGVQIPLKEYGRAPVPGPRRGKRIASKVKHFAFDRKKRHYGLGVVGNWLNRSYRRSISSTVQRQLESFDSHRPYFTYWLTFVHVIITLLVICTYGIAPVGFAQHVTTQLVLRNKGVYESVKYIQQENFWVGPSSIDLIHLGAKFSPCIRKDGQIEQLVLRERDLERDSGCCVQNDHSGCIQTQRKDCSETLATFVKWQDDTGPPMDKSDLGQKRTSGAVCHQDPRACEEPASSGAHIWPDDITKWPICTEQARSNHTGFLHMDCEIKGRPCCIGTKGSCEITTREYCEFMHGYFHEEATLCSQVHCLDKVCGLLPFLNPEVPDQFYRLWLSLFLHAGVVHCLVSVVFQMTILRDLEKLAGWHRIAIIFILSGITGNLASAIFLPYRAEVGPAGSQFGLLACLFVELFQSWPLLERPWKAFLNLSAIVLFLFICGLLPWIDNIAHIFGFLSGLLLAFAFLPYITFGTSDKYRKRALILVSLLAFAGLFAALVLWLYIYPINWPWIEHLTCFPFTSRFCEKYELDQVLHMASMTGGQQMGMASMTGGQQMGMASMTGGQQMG
# T2: hiR2-FL-R582A-T7 (human, UniProt Q6PJF5 1-856)
# T2 sequence: T1 sequence with A555T, R582A
# B1: antibody 3 (antibody, V domains shown)
# VH: QVTLKESGPGILQPSQTLSLTCSFSGFSLTTFAMGIGWVRQPSGKGLEWLAHIWWDGEKYNNPVLKSRLTISKDTSKNQVFLRIANVDTPDTATYYCARISSIYYIIDNWGQGTSVTVSS
# VL: DIVLTQSPATLSVTPGHSVSLSCRASQSISNNLHWYQKKSHESPRLLIKYVSQSISGIPSRFSGSGSGTDFTLSINSVETEDFGMYFCQQSYNWPLTFGAGTKLELK
# notes: mouse IgG, kappa light chain; also called clone #3; purified antibody 3
# Legend:
# hiR2-FL-T555A-T7 = target: T1, hiR2-FL-T555A-T7; assay: FACS on MEF-DKO cells expressing the variant, 3 µg/ml antibody
# Outline: (§1)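 Read-out is PE fluorescence by flow cytometry after two-step staining: antibody at 3 μg/ml for 1 hour on ice, then PE-labelled goat anti-mouse IgG F(ab′)2 (1:100) for 1 hour on ice.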
# hiR2-FL-R582A-T7 = target: T2, hiR2-FL-R582A-T7; assay: as above
# Outline: as §1
binder,measurement,setting,value
B1,loss of binding vs wild type,hiR2-FL-T555A-T7,≥ 30%
same,loss of binding vs wild type,hiR2-FL-R582A-T7,≥ 30%
